{"source": "patent US20110123508A1", "about": "“INSTRUMENT CLEANER” (NOVAPHARM RESEARCH (AUSTRALIA) PTY. LTD., priority 2008, published 2011)", "key": {"[1]": {"tested_on": "Staphylococcus aureus (ATCC 6538)", "assay": "Challenge test of 1:100 diluted cleaners with organic load, Staphylococcus aureus", "details": "cleaner diluted 1:100, organic load, 40±1° C."}, "Streptococcus mutan": {"tested_on": "Streptococcus mutan", "assay": "Challenge test of 1:100 diluted cleaners with organic load, Streptococcus mutan", "details": "cleaner diluted 1:100, organic load, 40±1° C."}, "[2]": {"tested_on": "Pseudomonas aeruginosa ATCC15442", "assay": "Challenge test of 1:100 diluted cleaners with organic load, Pseudomonas aeruginosa"}}, "data": [{"molecule": "Subtilisin Savinase 16L (protein, UniProt P29600 1-269, looked up) Subtilisin Savinase: AQSVPWGISRVQAPAAHNRGLTGSGVKVAVLDTGISTHPDLNIRGGASFVPGEPSTQDGNGHGTHVAGTIAALNNSIGVLGVAPSAELYAVKVLGASGSGSVSSIAQGLEWAGNNGMHVANLSLGSPSPSATLEQAVNSATSRGVLVVAASGNSGAGSISYPARYANAMAVGATDQNNNRASFSQYGAGLDIVAPGVNVQSTYPGSTYASLNGTSMATPHVAGAAALVKQKNPSWSNVQIRNHLKNTATSLGSTNLYGSGLVNAEAATR", "values": [{"measurement": "Concentration CFU/ml after time, 0 hrs", "setting": "[1]; 0 hrs (initial)", "value": "4.21E+07", "unit": "CFU/ml"}, {"measurement": "Concentration CFU/ml after time, 1 hr", "setting": "[1]; 1 hr", "value": "1.58E+08", "unit": "CFU/ml"}, {"measurement": "Concentration CFU/ml after time, 4 hrs", "setting": "[1]; 4 hrs", "value": "1.26E+08", "unit": "CFU/ml"}, {"measurement": "Concentration CFU/ml after time, 6 hrs", "setting": "[1]; 6 hrs", "value": "2.00E+08", "unit": "CFU/ml"}, {"measurement": "Concentration CFU/ml after time, 24 hrs", "setting": "[1]; 24 hrs", "value": "7.94E+07", "unit": "CFU/ml"}, {"measurement": "Concentration CFU/ml after time, 0 hrs", "setting": "Streptococcus mutan; 0 hrs (initial)", "value": "1.40E+07", "unit": "CFU/ml"}, {"measurement": "Concentration CFU/ml after time, 1 hr", "setting": "Streptococcus mutan; 1 hr", "value": "3.65E+07", "unit": "CFU/ml"}, {"measurement": "Concentration CFU/ml after time, 4 hrs", "setting": "Streptococcus mutan; 4 hrs", "value": "2.00E+06", "unit": "CFU/ml"}, {"measurement": "Concentration CFU/ml after time, 6 hrs", "setting": "Streptococcus mutan; 6 hrs", "value": "1.60E+06", "unit": "CFU/ml"}, {"measurement": "Concentration CFU/ml after time, 24 hrs", "setting": "Streptococcus mutan; 24 hrs", "value": "1.16E+06", "unit": "CFU/ml"}, {"measurement": "Concentration CFU/ml after time, 0 hrs", "setting": "[2]; 0 hrs (initial), cleaner diluted 1:100, organic load, 40±1° C.", "value": "2.94E+06", "unit": "CFU/ml"}, {"measurement": "Concentration CFU/ml after time, 1 hr", "setting": "[2]; 1 hr, cleaner diluted 1:100, organic load, 40±1° C.", "value": "3.69E+08", "unit": "CFU/ml"}, {"measurement": "Concentration CFU/ml after time, 4 hr", "setting": "[2]; 4 hr, cleaner diluted 1:100, organic load, 40±1° C.", "value": "2.06E+09", "unit": "CFU/ml"}, {"measurement": "Concentration CFU/ml after time, 6 hrs", "setting": "[2]; 6 hrs, cleaner diluted 1:100, organic load, 40±1° C.", "value": "3.80E+09", "unit": "CFU/ml"}, {"measurement": "Concentration CFU/ml after time, 24 hrs", "setting": "[2]; 24 hrs, cleaner diluted 1:100, organic load, 40±1° C.", "value": "1.46E+11", "unit": "CFU/ml"}, {"measurement": "reduction of microorganisms by single component alone", "setting": "[2]; protease or phenoxyethanol alone at the concentrations of diluted A and B", "value": "Neither the protease nor the phenoxyethanol alone at these concentrations achieved a reduction"}]}]}
